This is an account of results in publication PMC9688426, “Comparison of Optical and Electrical Sensor Characteristics for Efficient Analysis of Attachment and Detachment of Aptamer”.

The data set addresses thrombin (bovine, UniProt P00735;P00735 318-366;367-625). The data set can be described thus: graphene oxide FET resistance change; TBA adsorbed on graphene oxide; thrombin detected down to 250 pM within 5 min (detection limit, not Kd); Assay buffer and temperature not given in the material (reagents list PBS pH 7.4 and Trizma base); sections 3.2.1-3.2.3 have no text. GOx, trypsin, lysozyme, ficin and goat anti-mouse IgG were purchased, but no result for them is in the material. The following applies: protein: commercial; copies: 1;1.

B1: TBA (ssDNA)
DNA: GGTTGGTGTGGTTGG
In the case of B1, the binding result is “binds”.
